The nature of this data set: soluble on expression in E. coli; label from the status in PepcDB or PDB records.
With “MGSDKIHHHHHHMKKILFLFLAACFFFSCEKETIVIPQQHAGRTVLAFFWADNSLNSSLRDNIQTMMQGLQAMKDSAALLVYWDGEASDISWPEPCIVEYVTNGQGGINSLSKGTIDAMMADKNTSIYDLIGIGNIRKKYPPQTSTEKTVMQTVIGDMMSAYPSESYGIIFGSHGSGWLPTITGTRSIGQDGGRYSSDTALIPELAEVLRTVNPQKFDFVLFDACMMGCAEVYYELKDAARYCIASVLDIPAAGFPYASVMPYLYENAIKDYLEPICKDYIDYYNYIGWGTISAVDCNQMEGLAEAVRSVILSNQDSLKNVDTADLQQYGKGSSSFKGYAYDMLQFIGKLCGGMAPDDFTQQLKKTVIYTDYTHDPTSSLYRIDGDNYSGMGMYIPNSFTTPKYLLWNNYFKSSIAWYHASGWAETESIWGN”, the “soluble on expression in E. coli” value is “not soluble”.
With “MAHHHHHHMPARWHNKQKKGSNGHKRPSTGGNGSAARRDIGFIPPGASAVQNSSAHHADTFMYRFPQNFPVPRRLRHAPTSLVEAVNDFHFAMMNDRPRNEFYYELLKRHVTPETGVLEIGAGSGLLSLMAAQLGAKWVVAVEGSAEMAKLARANICANKMEHKVTVLHMLSTELTLRHLPDRPDVMVSEILGTLLLGESALDYIADVRERLLKPTTKIIPQHGTQYAVPIECDTLRDVCAVSGWKGLELSHMTALQDTVSIVFAKQYGFRMSSVPFRRLSEPIALFSVDFASAVRRDIPMNLKLDVKATSSGTAHAMLYYWKAFDGDLVMSTDPADTLNNFPRDMQWGQALQLLDAANGPFPTPVVFTEGEELKFQCHFSSDRVTVHIHLCPTAEAAASPAKTTPTDNDAIKTEKEACEKVNKGKK” the entry was “soluble”; with “MSLKIRSLHTDALKKLAVKCEDLFMAGQKDQLRFGVDSWSDFRLTSDKPCCEAGDAVYYTASYAKDPLNNYAVKICKSKAKESQQYYHSLAVRQSLAVHFNIQQDCGHFLAEVPNRLLPWEDPDDPEKDEDDMEETEEDAKGETDGKNPKPCSEAASSQKENQGVMSKKQRSHVVVITREVPCLTVADFVRDSLAQHGKSPDLYERQVCLLLLQLCSGLEHLKPYHVTHCDLRLENLLLVHYQPGGTAQGFGPAEPSPTSSYPTRLIVSNFSQAKQKSHLVDPEILRDQSRLAPEIITATQYKKCDEFQTGILIYEMLHLPNPFDENPELKEREYTRADLPRIPFRSPYSRGLQQLASCLLNPNPSERILISDAKGILQCLLWGPREDLFQTFTACPSLVQRNTLLQNWLDIKRTLLMIKFAEKSLDREGGISLEDWLCAQYLAFAEGHHHHHH”, “not soluble”; with “MVDIEIWLRLMSISSLYGDDMVRIAHWLAKQSHIDAVVLQQTGLTLRQAQRFLSFPRKSIESSLCWLEQPNHHLIPADSEFYPPQLQATTDYPGALFVEGELHALHSFQLAVVGSRAHSWYGERWGRLFCETLATCGVTITSGLARGIDGVVHKAALQVNGVSIAVLGNGLNTIHPRRHARLAASLFEQGGALVSEFPLDVPPLAYNFPRRNRIISGLSKGVLVVEAALRSGSLVTARCALEQGREVFALPGPIGNPGSEGPHWLIKQGAILVTEPEEILENLQFGLHWLPDAPENSFYSPDQQDVALPFPELLANVGDEVTPVDVVAERAGQPVPEVVTQLLELELAGWIAAVPGGYVRLRRACHVRRTNVFV”, “not soluble”.
For “MAFKGYPVIDKDGNIYAGNQDGQLYAYTSTGSLKWTFPLNGFSSSSPAIDHNGNIYIGSGSGELFSISKNGDMNWSFYTDGPVRTAPLIDAKGTVYFGSDDMKVYAADANGNELWSYQTDSNVVSSPQLAEDGTLEHHHHHH”, the “soluble on expression in E. coli” value is listed as “not soluble”.
With “MKVVVIGGGWSGVAAAIEAKKMGADVVLFEKTDLLLGLGNVGGIMRNNGRYTASEELIAMGGGDLINITDKVSRHKDIPFPGHEHAWLYDVNLVEGEVKRYVESLGIETKMVSRIIDIKQEDNKILGVYTSDGQYYNGDVFIETTGSTGPMGNCLRYGNGCSMCILRCPSFGPRISISSRCGVEDIQGERVGDELGAFSGSCKLAKETLSEEIRKELEEKGCVVLKIPKEDVNYDKLNTKVCQQYALKEFAENVVLLDTGHAKLMTTYYPLEKLRKIKGLENAKYVDPYAGGKGNSIRYLSVAPRDDNMKVKGVTNLFCAGEKSGLFVGHTEAIVTGTLAGHNAVRHALGIPYLILPRATVLGDIIAFANEESQSREGKKNRYTFAGSVYFNRMKELGLYTIDKDEIQKRVAQLNLDGVFSKKLMLEHHHHHH” the entry was “not soluble”; with “YKKGIKPDLESITLCREDYESSGGKEIFLSFEDTKNDLLIGYLRLRIPNNPFRKEITDKSALIRQVHVCGQQKELEGNSKELSWQHKGYGRLLIDEAEKIAKEEFEKDQMLINSGIGVREYYKKLRYKRVGPYMGKNLK”, “not soluble”.
In the case of “MGSDKIHHHHHHMSASLILTLSCEDKPGIVARVTGNLFEAGGNIREAQQFDDPLSGRFFMRVVFDPAEGSVEHYRAAFAAVADHYAMEWNLRDTTVKRKVILMVSKFDHCLGDLLYRTRIGELPMDVVAILGNHPKEALNISLIGDIPYHHLPITKDTKPQQEAEVKRIVTETGAELVVLARYMQILSDDLAAFLSGRCINIHHSFLPSFKGAKPYHQAHARGVKMIGATGHYVTADLDEGPIIHQDVETVTHADSPDDLVRKGRDVERRVLAEAVRLHLEDRALVNGNKTVVFKS”, the “soluble on expression in E. coli” value is listed as “not soluble”.
The entry for “QGKTTVTAALARLHARQGRRVRVFKCGPDFLDPMILARASGAPVYQLDLWMVGEAEARRLLARAAGEADLILIEGVMGLFDGNPSAADLARRFGVPVLGVINGAAMAQTFGALAYGLAHFQPDLPFSGVLGNRVGSQRHSDILRDCLPPGMRWFGGLPRSAEFELPSRHLGLVQAEELADLDARLDAAADALRASAETDLPEPVTFEVPAPAPLQRSLEGVRIGVARDASFAFLYQANLDLLRELGAELAFFSPLQDQALPAVDSLYLPGGYPELHLGRLQGNRAMAEAIRAHHAAGKPLLAECGGMLYLLDCLEDADGERGELLGLLPGRARLQKRLTALALQEVELPEGRLRGHTFHHSTLDCAVEPLARGVCPNGRNTAEAVFRLGRLTASYIHFYLPSNPQAAAALLAPARDA” is “not soluble”; for “MEFTLTREKQMIKEMVRDFAEKEIAPKAVYYDKTAEFPYETFQKMGELGLLGIPFPEEYGGSGGDTVSYALAVEEIGRACGGTGLSYAATISLGASPIYYFGTEEQKQKYLVPMASGKTLGAFGLTEPNAGSDAGGTQTKAILDGDEYVISGEKCWITNAEYANTIIVTAVNGIEENGRKRISAFIVPTTSEGLTISSPYDKMGVRASNTCEIVLDGVRVPKENILGDVNKGFKQFLYTLDGGRISIAVLAVGIAQSAFERALQYAKERQQFGKAISNFQAIQFKLADMATEVELARNLVHKAAWLKDNDKPFGKEAAMAKLFASEAASRIANQAVQIHGGYGYMREYEVERHIRDAKLLEIGEGTSEIQRLVIARHLGCR” it is “not soluble”; for “MMTLPYPYSSSARFYALRLLPGQEVFSQLHAFAQQQQLHAAWIAGCTGSLTDIALRYAGQEGTTLLNGTFEVISLNGTLEQSGEHLHLCVSDPHGTMLGGHMMPGCTVRTTLELVIGSLEELAFSRQPCALSGYDELHISPVK” it is “not soluble”.
With “MKVAIIACQKMVEMGCPGKEACVSCFKAINEKSGAFERYKDVELVAFTTCGGCPGRRFPMRVKLLKTAAGAEAIHIANCTFLQPECPYINFDEICKKLMEELEIPIVFGTHTLVKKGEVVCTCGDNKE” the entry was “not soluble”.
On to “MFDDKILLITGGTGSFGNAVMKQFLDSNIKEIRIFSRDEKKQDDIRKKYNNSKLKFYIGDVRDSQSVETAMRDVDYVFHAAALKQVPSCEFFPVEAVKTNIIGTENVLQSAIHQNVKKVICLSTDKAAYPINAMGISKAMMEKVFVAKSRNIRSEQTLICGTRYGNVMASRGSVIPLFIDKIKAGEPLTITDPDMTRFLMSLEDAVELVVHAFKHAETGDIMVQKAPSSTVGDLATALLELFEADNAIEIIGTRHGEKKAETLLTREEYAQCEDMGDYFRVPADSRDLNYSNYVETGNEKITQSYEYNSDNTHILTVEEIKEKLLTLEYVRNELNDYKASMR”, for which the “soluble on expression in E. coli” value was “not soluble”.
The entry for “MGSDKIHHHHHHMNEQFERLMVRVESLMARIESVLPQPLSAPDWTASVAYRYRKRGSGHGSLEPVRHLGAMRLTDLKEIDGQKDRIRRNTEQFVSGKPANNVLLTGSRGTGKSSLIKACLNEYSARGLRLIEVDKADLTDLPDIVDVVSGLPEKFIVFCDDLSFEEGEPGYKALKSILDGSIAAATPNVLIYATSNRRHLLPEYMMENLTYTHTEDGEVHPGEVVEEKISLSERFGLWVSFYPFSQDEYLTIVAQWLSSFGVNAEAISAARPASLVWALERGSRSGRVAYQFARDYAGQHAGTVQ” is “not soluble”; for “MVPHDKDKDNPSELIRGKDVAAFGLWSLPSFDEPRDEPAVAAPQVPAVAEPAPAPPAVEEVELETVKPPTLEEIEAIRQDAYNEGFATGERDGFHAGQLKARQEAEEALKERLQSLERLMTQLLEPIAEQDALIEQGMVNLVNHVARQVIQRELHMDSSHVRQVLREALKLLPMGAANIRIHVNPQDFERVKALRERHEESWRILEDDSLLPGGCRIETEHSRIDATIETRLAQAVKQLFEQQREQATHPLASDIRIDLDAPGDVDAP” it is “not soluble”; for “MVPNDVFQKLLYDLFCMWHGVQRHYDPPIPDSEEQRMQKVKNLICKLLTEIDGRVNRIKQNNNHQRGQDFYEEWTMLTWNVLCITNRLQNSLSQVVVSNEDKMIYSRLNQALVELVNYSRDFLPFPSTNEMDPEYVMLRDKMNQTMMSLHGLYRQMNSAMYQTPDDVENFRIHLQTFGDDILVPCLEQYKTFCNKNCMALWQQVRLVQVERMRDQVKDQGCSIENLVSFYSNMTYVLAVLGARLQGFRYDLTVNKKFFNFDPVVHMSEAVFAALELLMSNCVLATEPSTSAILVTNNLFAMNCGALARGVVFKDFEIQVVSEETAEHIQSEMSRQRLLQHPAPIGNVPSAALLAMKPTTGTKRSNAASNSDSANNTAHKKSDVNSKESVIIYPVYNSKNRYWAATYPHLLCTTRQKGRQSIHSSYQDLSPSGTNSSASNDKNGSGKRPIFYFHIKATMFSPSGRFATAHTLSLPFTIATRRNQDCQVQRMMSSYTATIFWLYGCNTQDGLLLQWIDGGMHWDHFKHLFKQHFKLLKYKLQCPDCCSGQDGARVNGVQQIVTFKNVLCPHLRYECNSTNVRFSVWRGMLELLQIFHDTRNNVRKLWEMGFLMGFMEFEEVDNMLEKHKSALIMRLSFVTGGTICFTVKSLAHTLDPRSSRPIHLEPLDLKRLQQKCLKDYLRDIADAEKVKYILTANEEVINIESLLESLKELGVKPENPSESREISSNITHMGDIDTMQHIKFTAMRIAVVTCKVKPPSADQEENDANGLNRLQATLGTRDDDFLRDFVQLANAYGKSKQDLYEALDFINDQYQPGPIRKTSSIYDSSHHIPLAPAPIARNMGPTMISPPPAKVRPPAVDTYPRSSQFELVRSDSDHLPPSNTMMRVSCSPPKPPSQLPSPNQTTIPHMYNNGIPMIYEHHQQQRFDY” it is “not soluble”.
With “GPGSMSSADLFKKFTLQNVAQIANSSHKEQMQVRHDLAEQYPQLADFWEDIMPRKSDIMLVRCHDQVHCVTLVSAQPEVLFFNHHNGPYIPHLKLLHKYPFILQRHQVDVGACKHVLSGANIMCPGLTSKGGYITPEIPAGQLVAVYVETKEHAVAIGKTLMSSEEIKKVNSGPCIENIHHVGDGLWMNRVLSASHIGAR” the entry was “soluble”.
